# Earlier results, collected in PMC5951583.
# Read-outs that look alike come from different tables or passages of the source.
# Legend:
# [1] = target: Synaptotagmin-2 (Rattus norvegicus) (UniProt P29101); assay: SPR
# [2] = target: Syt-II (Rattus norvegicus) (UniProt P29101)
# [3] = target: Synaptotagmin-2 (Rattus norvegicus) (UniProt P29101)
# [4] = target: Syt-II luminal domain (Rattus norvegicus) (UniProt P29101); assay: ITC
# [5] = target: Synaptotagmin-2 (Rattus norvegicus) (UniProt P29101); remark: listed apart in the source
# [6] = target: Synaptotagmin-2 (Rattus norvegicus) (UniProt P29101); assay: ITC
substance,measurement,setting,value
BoNT/B (from UniProt P10844),Kd,[1],0.6 nM
same,Kd,[2],7 nM
same,Kd,[3],0.23 nM
BoNT/B HC (HCB) HC (from UniProt P10844),Kd,[4],34 nM
BoNT/B HC HC (from UniProt P10844),Kd,[5],7 nM
same,Kd,[6],34 nM
